Residue numbers refer to the chain shown, from its start. Ends that are not written are not given here.

One may read the Kd as the equilibrium constant for the complex coming apart. Broadly, the stoichiometry N is the number of molecules, sites or subunits per partner or assembly.

Details in all cases: both partners purified
The target in one test is T1, NPNA8 peptide (Plasmodium falciparum (isolate 3D7)., not fully specified).
T1 construct: source: synthetic peptide (InnoPep Inc, purity >=97%)
T1 chain: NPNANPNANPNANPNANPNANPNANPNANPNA
Put plainly: BLI. Background: BLI is a label-free optical method that tracks binding on a fibre tip over time.

Another test has as its target T2, NPNA4 peptide (Plasmodium falciparum (isolate 3D7)., not fully specified).
T2 construct: source: synthetic peptide (InnoPep Inc, purity >=97%)
T2 chain: NPNANPNANPNANPNA
Put plainly: BLI.

The target in test [1] is T3, NPNA4 peptide, biotinylated at the C-terminus (BLI) (Plasmodium falciparum (isolate 3D7).).
T3 construct: source: synthetic peptide (InnoPep Inc)
T3 chain: NPNANPNANPNANPNA-biotin
The test is described as follows: BLI.

Test [2] addresses T4, NPNA8 peptide (used for cryo-EM with Fab 227) (Plasmodium falciparum, not fully specified).
T4 construct: source: synthetic peptide (InnoPep Inc)
T4 chain: T1 chain
The test is described as follows: cryo-EM structure; saturating amounts of Fab incubated with rsCSP (or NPNA8 for Fab 227) overnight at 4 °C, complex purified by SEC (Superose 6 Increase, TBS), single particle cryo-EM.

Test [3] addresses T4, NPNA8 peptide (used for cryo-EM with …). Described as above.

B1: 311R Fab (Fab, V domains shown)
VH: QVQLVESGGGVVPPGRSLRLSCATSGFTFSSYGMHWVRQAPGKGLEWVAIIWYDGSNKFYAASVKGRFTISRDNSKNTLYLQMNSLRVEDTAVYYCARAAYYDTSGYGDYWGQGTLVTVSS
VL: QSVLTQPPSVSGAPGQTVTISCTGGSSNIGAGYDVHWYQQLPGTAPKLLIYGNINRPSGVPDRFSGSKSGTSASLAITGLQAEDEADYYCQSYDSSLSGSWVFGGGTKLTVL
notes: also called Fab311R; germline-reverted 311; source: ExpiCHO cells, purified (mAb Select PrismA or Capture Select, SEC)
B1: the Kd in the test with NPNA8 peptide turned out to be 401 nM; in the test with NPNA4 peptide it was 131 nM.

B2: 364 Fab (Fab, V domains shown)
VH: QVQLVESGGGVVQPGGSLRLSCAASGFTFSGYGMHWVRQVPGKGLEWVAIIWFDGSQKYYADSVQGRFTISRDNSKKTLFLRMNSLRAEDTAVYYCAKVHDDEPTQDYWGQGTLVTVSS
VL: DIQMTQSPSTLSASVGDRVTITCRASQGISTSLAWYQQKPGKAPKLLIYKASSLESGVPSRFSGSGSGTEFTLTITSLQPEDFATYYCQQYKRYWTFGQGTKVEIK
notes: source: ExpiCHO cells, purified (mAb Select PrismA or Capture Select, SEC)
As to B2, the Kd in the test with NPNA8 peptide was found to be 4.88 nM; in the test with NPNA4 peptide, 260 nM.

B3: Fab 356R, germline-reverted mutant of 356 (Fab, V domains shown)
VH: QVQLVESGGGVVQPGRSLRLSCAASGFTFSSYGMHWVRQTPGKGLEWVAVIWHDGSNKFYADSVKGRFTISRDNSKNMIYLQMNSLRVEDTAIYYCARDSLFYDHDNSGYYGYWGQGTLVTVSS
VL: EIVMTQSPATVSVSPGERATLSCRASQSVTSKLAWYQQKPGQAPRLLIYGASTRATGIPARFSGSGSGTEFTLTISSLQSEDFAVYFCQQYNNGFTFGPGTKVDFK
notes: as for B2
With B3, in test [1], the “fold change of apparent affinity against 356” value was approximately 2 fold.

B4: 356 Fab (Fab, V domains shown)
VH: B3 VH with S30R, S31N, Y32F, K65E
VL: B3 VL with E1Q, Q27R
notes: as for B2
B4: the Kd with NPNA8 peptide was determined as 6.35 nM; in the test with NPNA4 peptide, 123 nM.

B5: Fab 239R, germline-reverted mutant of 239 (Fab, V domains shown)
VH: QVQLVESGGGVVQPGRSLRLSCAASRLTFSSYGMHWVRQTPGKGLEWVAVIWHDGSNKFYADSVKGRFTISRDNSKNTLYLQMNSLRDEDTAIYYCAKDWGGASDRVFDYWGRGTLVIVSS
VL: DIQMTQSPSTLSASVGDRVTITCRASQSVSTSLAWYQQKPGKAPNLLIYQASTLYTGVPSRFSGSGSGTEFTLTIGSLQPDDFATYYCQHYNSYSRITFGQGTRLEIK
notes: as for B2
With B5, in test [1], the “fold change of apparent affinity against 239” value is approximately 2 fold.

B6: 239R Fab (Fab, V domains shown)
VH: B5 VH
VL: B5 VL
notes: also called Fab239R; 239 FabR; source: ExpiCHO cells, purified (mAb Select PrismA or Capture Select, SEC)
For the molecule B6, the Kd in the test with NPNA8 peptide is 205 nM; with NPNA4 peptide it was 165 nM.

B7: Fab of mAb 227 (Fab, V domains shown)
VH: QVQLVQSGGGVVQPGRSLRLSCVTSGFTFPAFGMHWVRQAPGKGLEWVAVIWYDGSKKYYADSVRGRFTISRDNSRNTLYLQMHSLRAEDTAVYYCARVKNYESSGYSQCLDYWGQGVLVTVAS
VL: QSVLTQPPSVSGAPGQRVTISCTGSSSNIGAGYDVHWYQQLPGTAPKLLIYGNGNRPSGVPDRFSGSKSGTSVSLAITGLQAEDEADYYCQSYDSSLSAFVFGTGTKVTVL
notes: also called 227 Fab; source: ExpiCHO cells, purified (mAb Select PrismA or Capture Select, SEC)
Regarding B7, the “stoichiometry N” value came to 8 Fabs bound in test [2] and 4 Fabs per NPNA8 disc in test [3].

The values are drawn from publication PMC10382551, “Affinity-matured homotypic interactions induce spectrum of PfCSP structures that influence protection from malaria infection” (Nature Communications, 2023).
